These results are taken from patent publication US12241890B2, “Methods for generating barcoded nucleic acid molecules using fixed cells” (10X Genomics, Inc., priority 2019, dated 2025).

Holding throughout (assay type): cell-based
For assay [1], the system named is PFA-fixed Jurkats cells. As to the kind of experiment: RNA yield and DV200 from PFA-fixed Jurkats after Subtilisin A with or without compound (1) (Example 2). To be noted: 4% PFA-fixed Jurkats, 50 mM compound (1) where present. As to the method:
Materials and Methods: A protease stock solution of 100 mg/ml Subtilisin A from Bacillus licheniformis (Sigma-Aldrich, cat. #P5380) was prepared in H2O and stored at −20° C. A stock solution of the un-fixing agent of 100 mM compound (1) in 30 mM Tris-HCl, 1 mM EDTA, pH 6.8, was prepared and stored at room temperature. Dissociated single cells (Jurkats) were pelleted by 400 g centrifugation for 5 minutes and the supernatant removed. A fixing reagent solution of 4% PFA in PBS with 0.2 U/μL Qiagen RNAse Inhibitor (Qiagen, cat. #129916) was added to the pelleted cells and the mixture incubated at 4° C. overnight. The resulting fixed cells were quenched with 10% FBS in PBS and spun down for 5 minutes at 500 g, 4° C. 150,000 fixed cells were washed once in PBS then resuspended in 100 μL, 30 mM Tris-HCL, 1 mM EDTA, pH 6.8. RNAse Inhibitor was added to the fixed cell solution together with one of the following: (a) 5 mg/mL Subtilisin A; or (b) 5 mg/mL Subtilisin A and 50 mM compound (1). The fixed cell solution with Subtilisin A protease and with or without the un-fixing agent of compound (1) was allowed to incubate at 8° C. for 2 hours, followed by 15 minutes at 70° C. shaking continuously at 300 rpm on an Eppendorf Thermomixer. The resulting cell solutions were spun down for 5 minutes at 500 g, 4° C., and the supernatant and pellet fractions were collected separately. RNA extraction of the collected fractions was carried out using Qiagen 96 Kit (Qiagen, cat. #74181), bulk RNA sequencing, and/or single cell 3′ sequencing. Control samples of fresh cells, fresh cells with un-fixing conditions, and fixed cells without un-fixing treatment were also prepared and RNA extracted. RNA yield was assessed by Qubit HS Assay (Q32855) and yield and DV200 quality metric was assessed by Agilent 4200 High Sensitivity ScreenTape (5067-5579).

Assay [2] deals with PFA-fixed Jurkats cells. As to the kind of experiment: RNA yield and DV200 from PFA-fixed Jurkats after Subtilisin A with or without compounds (1) and/or (8) (Example 4). To be noted: 5 mg/mL Subtilisin A. As to the method:
A. Protease preparation: A protease stock solution of 100 mg/ml Subtilisin A from Bacillus licheniformis (Sigma-Aldrich, cat. #P5380) was prepared in H2O and stored at −20° C.
(§1) B. Un-fixing agent stock solutions: A stock solution of the un-fixing agent of 100 mM compound (1) in 30 mM Tris-HCl, 1 mM EDTA, pH 6.8, was prepared and stored at room temperature. A stock solution of the un-fixing agent of 100 mM compound (8) in 30 mM Tris-HCl, 1 mM EDTA, pH 6.8, was prepared and stored at room temperature.
(§2) C. Fixed cell preparation: Dissociated single cells (Jurkats) were pelleted by 400 g centrifugation for 5 minutes and the supernatant removed. A fixing reagent solution of 4% PFA in PBS with 0.2 U/μL Qiagen RNAse Inhibitor (Qiagen, cat. #129916) was added to the pelleted cells and the mixture incubated at 4° C. overnight. The resulting fixed cells were quenched with 10% FBS in PBS and spun down for 5 minutes at 500 g, 4° C. 150,000 fixed cells were washed once in PBS then resuspended in 100 μL, 30 mM Tris-HCL, 1 mM EDTA, pH 6.8.
D. Cell un-fixing/protease treatment: RNAse Inhibitor was added to the fixed cell solution together with one of the following: (a) 5 mg/mL Subtilisin A protease; (b) 5 mg/mL Subtilisin A protease and 50 mM compound (1); (c) 5 mg/mL Subtilisin A protease and 50 mM compound (8); (d) 5 mg/mL Subtilisin A protease and 25 mM compound (8) and 25 mM compound (1).
The fixed cell solutions treated with Subtilisin A protease and with or without the un-fixing agents of compounds (1) and/or (8) were allowed to incubate under one of the following conditions: (1) 8° C. for 2 hours; (2) 8° C. for 2 hours, followed by 15 minutes at 70° C. shaking continuously at 300 rpm on an Eppendorf Thermomixer; (3) 53° C. for 45 min; or (4) 53° C. for 45 min followed by 15 minutes at 70° C. shaking continuously at 300 rpm on an Eppendorf Thermomixer. The resulting cell solutions were spun down for 5 minutes at 500 g, 4° C., and the supernatant and pellet fractions were collected separately.
(§3) E. RNA quantitation: RNA extraction of the collected fractions was carried out using Qiagen 96 Kit (Qiagen, cat. #74181), bulk RNA sequencing, and/or single cell 3′ sequencing. Control samples of fresh cells, fresh cells with un-fixing conditions, and fixed cells without un-fixing treatment were also prepared and RNA extracted. RNA yield was assessed by Qubit HS Assay (Q32855) and yield and DV200 quality metric was assessed by Agilent 4200 High Sensitivity ScreenTape (5067-5579).

The subject of assay [3] is PFA-fixed Jurkats cells. Kind of assay: RNA yield and DV200 from PFA-fixed Jurkats after Proteinase K with or without compounds (1) and/or (8) (Example 5). To be noted: 4% PFA-fixed Jurkats, 53° C./45 min. As to the method:
A. Protease preparation: A stock solution of 20 mg/mL Proteinase K (Sigma-Aldrich, cat. #_AM258) was stored at −20° C.
as §1, §2
D. Cell un-fixing/protease treatment: RNAse Inhibitor was added to the fixed cell solution together with one of the following: (a) 0.1 mg/mL Proteinase K protease; (b) 0.2 mg/mL Proteinase K protease; (c) 0.4 mg/mL Proteinase K protease; (d) 0.2 mg/mL Proteinase K protease and 50 mM compound (1); (e) 0.4 mg/mL Proteinase K protease and 50 mM compound (1); (f) 0.2 mg/mL Proteinase K protease and 50 mM compound (8); (g) 0.4 mg/mL Proteinase K protease and 50 mM compound (8); (h) 0.2 mg/mL Proteinase K protease and 25 mM compound (8) and 25 mM compound (1); or (i) 0.4 mg/mL Proteinase K protease and 25 mM compound (8) and 25 mM compound (1). The fixed cell solutions treated with Proteinase K protease and with or without the un-fixing agents of compounds (1) and/or (8) were allowed to incubate at 53° C. for 45 min. The resulting cell solutions were spun down for 5 minutes at 500 g, 4° C., and the supernatant and pellet fractions were collected separately.
as §3

Assay [4] has as its system PFA-fixed Jurkats cells. Kind of assay: Bulk un-fixing, then single-cell partition barcoding, 3'-RT and cDNA electropherogram (Example 7). To be noted: Fresh cells partitioned with the RT assay reagent mix and the protease. As to the method:
A. Protease preparation: A stock solution of 20 mg/mL Proteinase K (Sigma-Aldrich, cat. #AM258) was stored at −20° C.
B. Un-fixing agent of compound (8) stock solutions: A stock solution of the un-fixing agent of 100 mM compound (8) in 30 mM Tris-HCl, 1 mM EDTA, pH 6.8, was prepared and stored at room temperature.
as §2
D. Cell un-fixing/protease treatment: RNAse Inhibitor was added to the fixed cell solution together with 0.1 mg/mL Proteinase K and 50 mM compound (8). The fixed cell solution treated with the protease and compounds (8) were allowed to incubate at 53° C. for 45 min. The resulting cell solutions were spun down for 5 minutes at 500 g, 4° C., and the supernatant and pellet fractions were collected separately. […]

[5] abbreviates: 5 mg/mL Subtilisin A, 8° C./2 hr.
[6] abbreviates: un-fixing agent 50 mM (25 mM each in combination), 8° C./2 hr then 70° C./15 min.
Where [7] appears, read: un-fixing agent 50 mM (25 mM each in combination), 53° C./45 min.
Where [8] appears, read: Proteinase K at 0.2 mg/mL, un-fixing agent 50 mM (25 mM each in combination).
Setting [9] is: Proteinase K at 0.4 mg/mL, un-fixing agent 50 mM (25 mM each in combination).

B1: Subtilisin A: protease Subtilisin A from Bacillus licheniformis (Sigma-Aldrich, cat. #P5380) (protein, UniProt P00780 106-379, looked up)
Subtilisin Carlsberg: AQTVPYGIPLIKADKVQAQGFKGANVKVAVLDTGIQASHPDLNVVGGASFVAGEAYNTDGNGHGTHVAGTVAALDNTTGVLGVAPSVSLYAVKVLNSSGSGSYSGIVSGIEWATTNGMDVINMSLGGASGSTAMKQAVDNAYAKGVVVVAAAGNSGSSGNTNTIGYPAKYDSVIAVGAVDSNSNRASFSSVGAELEVMAPGAGVYSTYPTNTYATLNGTSMASPHVAGAAALILSKHPNLSASQVRNRLSSTATYLGSSFYYGKGLINVEAAAQ
As for B1, the “Pellet Qubit Avg (SD), RNA yield” value in assay [1] (setting [5]) is 21; in assay [2] (8° C./2 hr), 108.4; in assay [2] (setting [6]), 106; in assay [2] (setting [7]), 144. Also, the “Pellet Tapestation Avg (SD), RNA yield” value is 21 in assay [1] (setting [5]), 49 in assay [2] (8° C./2 hr), 58 in assay [2] (setting [6]) and 244 in assay [2] (setting [7]). Also, the “Supernatant Tapestation Avg (SD), RNA yield” value turned out to be 8 in assay [1] (setting [5]), 231 in assay [2] (setting [6]) and 252 in assay [2] (setting [7]). For the same molecule, the “RNA recovery relative to fresh cells” value in assay [1] (Subtilisin A, 2 h at 8° C.) was “about 7%”. The “Supernatant Qubit Avg (SD), RNA yield” value in assay [2] (8° C./2 hr) came out at 0; in assay [2] (setting [6]) it was 398; in assay [2] (setting [7]), 245.

B2: Proteinase K: the protease, Proteinase K (Sigma-Aldrich, cat. #AM258) (protein, UniProt P06873 106-384, looked up)
Proteinase K: AAQTNAPWGLARISSTSPGTSTYYYDESAGQGSCVYVIDTGIEASHPEFEGRAQMVKTYYYSSRDGNGHGTHCAGTVGSRTYGVAKKTQLFGVKVLDDNGSGQYSTIIAGMDFVASDKNNRNCPKGVVASLSLGGGYSSSVNSAAARLQSSGVMVAVAAGNNNADARNYSPASEPSVCTVGASDRYDRRSSFSNYGSVLDIFGPGTSILSTWIGGSTRSISGTSMATPHVAGLAAYLMTLGKTTAASACRYIADTANKGDLSNIPFGTVNLLAYNNYQA
B2: in assay [3] (Proteinase K at 0.1 mg/mL), the “Pellet Qubit Avg (SD), RNA yield” value came out at 1350; the “Pellet Tapestation Avg (SD), RNA yield” value is listed as 1804.5; the “Supernatant Qubit Avg (SD), RNA yield” value came to 321.3; the “Supernatant Tapestation Avg (SD), RNA yield” value came out at 152.55. For the same molecule, in assay [3] (setting [8]), the “Pellet Qubit Avg (SD), RNA yield” value came to 107.82; the “Pellet Tapestation Avg (SD), RNA yield” value is given as 127.8; the “Supernatant Qubit Avg (SD), RNA yield” value is 251.1; the “Supernatant Tapestation Avg (SD), RNA yield” value was determined as 121.05. Further, in assay [3] (setting [9]), the “Pellet Qubit Avg (SD), RNA yield” value is 106.2; the “Pellet Tapestation Avg (SD), RNA yield” value is 76.725; the “Supernatant Qubit Avg (SD), RNA yield” value came out at 266.4; the “Supernatant Tapestation Avg (SD), RNA yield” value came to 125.55. Besides, the “cDNA electropherogram profile from single-cell 3'-RT (FIG. 11B)” value in assay [4] is listed as “no mound profile”.
